Results published in patent US20260022186A1 (UNIVERSITY OF CHICAGO, published 2026).
Substitutions are numbered along the chain they refer to.

T1: Full-length human NT5E (recombinant, secreted) (human)
T1 chain: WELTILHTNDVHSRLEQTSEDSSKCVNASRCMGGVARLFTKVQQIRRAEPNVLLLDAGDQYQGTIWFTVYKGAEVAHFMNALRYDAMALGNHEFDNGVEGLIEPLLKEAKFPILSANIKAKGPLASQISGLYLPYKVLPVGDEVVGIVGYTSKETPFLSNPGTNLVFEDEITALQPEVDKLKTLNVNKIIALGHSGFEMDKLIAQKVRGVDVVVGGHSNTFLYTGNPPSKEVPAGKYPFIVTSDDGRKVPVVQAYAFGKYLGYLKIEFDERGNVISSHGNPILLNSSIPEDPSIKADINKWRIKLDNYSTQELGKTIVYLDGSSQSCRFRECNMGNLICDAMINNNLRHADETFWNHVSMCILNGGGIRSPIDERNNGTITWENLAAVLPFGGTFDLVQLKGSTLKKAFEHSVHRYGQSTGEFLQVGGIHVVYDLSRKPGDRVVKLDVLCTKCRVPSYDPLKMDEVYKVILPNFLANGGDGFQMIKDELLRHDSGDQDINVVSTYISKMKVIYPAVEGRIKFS

T2: hNT5EFF (F417A/F500A mutant of hNT5E) (human, UniProt P21589 27-549)
T2 sequence (looked up): T1 chain with A350T, T353M, F391A, F474A

T3: Full-length murine NT5E (recombinant, secreted) (murine)
T3 chain: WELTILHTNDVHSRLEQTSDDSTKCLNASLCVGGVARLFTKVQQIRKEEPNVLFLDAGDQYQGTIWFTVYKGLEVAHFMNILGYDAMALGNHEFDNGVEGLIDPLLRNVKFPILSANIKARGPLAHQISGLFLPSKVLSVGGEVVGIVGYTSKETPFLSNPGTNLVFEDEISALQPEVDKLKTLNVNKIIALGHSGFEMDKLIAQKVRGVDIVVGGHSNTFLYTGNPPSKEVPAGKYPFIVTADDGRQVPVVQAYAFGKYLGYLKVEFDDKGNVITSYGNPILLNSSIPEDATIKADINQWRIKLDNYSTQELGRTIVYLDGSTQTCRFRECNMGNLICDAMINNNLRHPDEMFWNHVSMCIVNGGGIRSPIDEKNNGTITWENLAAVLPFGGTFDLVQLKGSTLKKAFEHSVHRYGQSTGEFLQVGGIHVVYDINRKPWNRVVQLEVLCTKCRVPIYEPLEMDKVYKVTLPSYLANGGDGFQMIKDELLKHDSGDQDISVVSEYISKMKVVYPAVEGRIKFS

B1: 1789 Fab (Fab, V domains shown)
VH: EVQLVESGGGLVQPGGSLRLSCAASGFNVSYSSIHWVRQAPGKGLEWVASISSSSGYTYYADSVKGRFTISADTSKNTAYLQMNSLRAEDTAVYYCARNYWGWYPFYYFAFDYWGQGTLVTV
VL: DIQMTQSPSSLSASVGDRVTITCRASQSVSSAVAWYQQKPGKAPKLLIYSASSLYSGVPSRFSGSRSGTDFTLTISSLQPEDFATYYCQQGWDYPITFGQGTKVEIKR
B2: 1789 AM39 Fab (Fab, V domains shown)
VH: B1 VH with S52R, S53G, S54A, S55G, G56S, Y57D, Y59R
VL: B1 VL
B3: 1789 AM42 Fab (Fab, V domains shown)
VH: B1 VH with S50K, S52R, S53G, S54G, S55H, G56Q, Y57D, Y59H
VL: B1 VL
B4: 1789 IgG (antibody, V domains shown)
VH: EVQLVESGGGLVQPGGSLRLSCAASGFNVSYSSIHWVRQAPGKGLEWVASISSSSGYTYYADSVKGRFTISADTSKNTAYLQMNSLRAEDTAVYYCARNYWGWYPFYYFAFDYWGQGTLVTVSS
VL: B1 VL
B5: 1789 AM32 Fab (Fab, V domains shown)
VH: B1 VH with S50R, S52R, S53G, S54N, S55E, Y57D
VL: B1 VL
notes: also called Fab32

Columns and labels:
[1] = molecular target: T1, Full-length human NT5E (recombinant, …); experiment: cell-based or functional assay
[2] = molecular target: hNT5EDF (substrate binding knock-out variant of human NT5E) (human); experiment: cell-based or functional assay
[3] = molecular target: T2, hNT5EFF (F417A/F500A mutant of hNT5E); experiment: cell-based or functional assay
[4] = molecular target: T1, Full-length human NT5E (recombinant, …); experiment: SPR, NT5E on NTA chip via His-tag, no ATP
[5] = molecular target: T1, Full-length human NT5E (recombinant, …); experiment: SPR, NT5E on NTA chip via His-tag, 1 mM ATP
[6] = molecular target: T1, Full-length human NT5E (recombinant, …); experiment: protein ELISA, immobilised biotinylated NT5E, 1 mM ATP
[7] = molecular target: T3, Full-length murine NT5E (recombinant, …); experiment: SPR, NT5E on NTA chip via His-tag, 1 mM ATP; SPR, Fab, 1 mM ATP
[8] = molecular target: T3, Full-length murine NT5E (recombinant, …); experiment: protein ELISA, immobilised biotinylated NT5E, 1 mM ATP; protein ELISA, Fab, 1 mM ATP (EC50ATP)
[9] = molecular target: T1, Full-length human NT5E (recombinant, …); experiment: SPR, no ATP
[10] = molecular target: T3, Full-length murine NT5E (recombinant, …); experiment: SPR, no ATP
[11] = molecular target: T1, Full-length human NT5E (recombinant, …); experiment: SPR, 1 mM ATP
[12] = molecular target: T3, Full-length murine NT5E (recombinant, …); experiment: SPR, 1 mM ATP
[13] = molecular target: T3, Full-length murine NT5E (recombinant, …); experiment: SPR, no ATP; footnote *: data generated poor fits
[14] = molecular target: T3, Full-length murine NT5E (recombinant, …); experiment: protein ELISA, immobilised biotinylated NT5E, 1 mM ATP
[15] = molecular target: T1, Full-length human NT5E (recombinant, …); experiment: protein ELISA, immobilised biotinylated NT5E, no ATP (apo)

Binder | EC50 [6] [nM] | Kd [9] [nM] | koff [9] [s⁻¹] | kon [9] [M⁻¹ s⁻¹] | koff [10] [s⁻¹] | kon [10] [M⁻¹ s⁻¹] | Kd [11] [nM] | koff [11] [s⁻¹] | kon [11] [M⁻¹ s⁻¹] | Kd [12] [nM] | koff [12] [s⁻¹] | kon [12] [M⁻¹ s⁻¹] | Kd [10] [nM] | other results
B1 | 37 |  |  |  |  |  |  |  |  |  |  |  |  | TM of NT5E by differential scanning fluorimetry with 1789 Fab, 1 mM ATP [1]: 66 ° C.; TM of NT5E by differential scanning fluorimetry with 1789 Fab, No ATP [1]: 48 ° C.; TM of NT5E by differential scanning fluorimetry with 1789 Fab, 1 mM ATP [2]: 46 ° C.; TM of NT5E by differential scanning fluorimetry with 1789 Fab, No ATP [2]: 48 ° C.; TM of NT5E by differential scanning fluorimetry with 1789 Fab, 1 mM ATP [3]: 46 ° C.; TM of NT5E by differential scanning fluorimetry with 1789 Fab, No ATP [3]: 47 ° C.; Kd [4]: 760 nM; koff [4]: 0.044 s⁻¹; kon [4]: 57000 M⁻¹ s⁻¹; Kd [5]: 42 nM; koff [5]: 0.0073 s⁻¹; kon [5]: 170000 M⁻¹ s⁻¹; Kd [7]: 160 nM; koff [7]: 0.014 s⁻¹; kon [7]: 85000 M⁻¹ s⁻¹; EC50 [8]: 132 nM
B2 |  | 35 | 0.0099 | 280000 | 0.013 | 140000 | 7.9 | 0.0039 | 490000 | 12 | 0.0035 | 290000 |  | Kd [13]: 99 nM
B3 |  | 38 | 0.0067 | 180000 | 0.012 | 190000 | 11 | 0.0036 | 320000 | 12 | 0.0029 | 250000 | 63 | 
B4 | 0.86 |  |  |  |  |  |  |  |  |  |  |  |  | EC50 [14]: 1.14 nM; EC50 [15]: 2.14 nM
B5 |  | 86 | 0.0091 | 110000 | 0.011 | 78000 | 15 | 0.0042 | 270000 | 15 | 0.0028 | 190000 | 150 | 
